Measured values as given in patent US20250313627A1 (FUSE BIOTHERAPEUTICS, published 2025).

B1: FUSE-560 (h2A11-HK2 Fc) (Fc fusion)
chain: EVQLLESGGGLVQPGGSLRLSCAASGSTYSANCMGWFRQAPGKERELASMSIRSGRTYYADSVKGRFTISRDSSKNTLYLQMNSLKAEDTAVYYCAAAYGGSRCVYNYRGQGTLVTVSS
notes: VHH-Fc format; not shown: Fc of the VHH-Fc format
B2: FUSE-661 - h2A11-HK2-3-N84S Fc (Fc fusion)
chain: EVQLLESGGGLVQPGGSLRLSCAASGSQRSANCMGWFRQAPGKDRELASMSIRSGRTYYADSVKGRFTISRDSSKNTLYLQMSSLKAEDTAVYYCAAAYGGSRCVYNYRGQGTLVTVSS
notes: as for B1
B3: FUSE-561 (h2A11-HK3 Fc) (Fc fusion)
chain: EVQLLESGGGLVQPGGSLRLSCAASGSTYSANCMGWFRQAPGKERELASMSIRSGRTYYADSVKGRFTISRDSSKNTLYLQMNSLRAEDTAVYYCAAAYGGSRCVYNYRGQGTLVTVSS
notes: as for B1
B4: FUSE-662 - h2A11-HK2-16-N84S Fc (Fc fusion)
chain: EVQLLESGGGLVQPGGSLRLSCAASGVGYSANCMGWFRQAPGKDRELASMSIRSGRTYYADSVKGRFTISRDSSKNTLYLQMSSLKAEDTAVYYCAAAYGGSRCVYNYRGQGTLVTVSS
notes: as for B1
B5: FUSE-562 (h2A11-HK4 Fc) (Fc fusion)
chain: EVQLLESGGGLVQPGGSLRLSCAASGSTYSANCMGWFRQAPGKERELASMSIRSGRTYYSDSVKGRFTISRDGSKNTLYLQMNSLKAEDTAVYYCAAAYGGSRCVYNYRGQGTLVTVSS
notes: as for B1
B6: BI-HU9-VH9 h5A1 Fc (Fc fusion)
chain: EVQLLESGGGLVPRGGSLRLSCTASGYTNRLKCMGWFRQAPGKEREEIATISTGTGNTYYADSVKGRFTISRDNSRNTLYLQMKTLRAEDTAVYYCAADVRPDGTTCHYNSWGQGTQVTVSS
notes: VHH-Fc format; same VHH as FUSE-497; not shown: Fc of the VHH-Fc format
B7: BI-HU9-HK-1 h5A1 Fc (Fc fusion)
chain: EVQLLESGGGLVQPGGSLRLSCAASGYTNRLKCMGWFRQAPGKEREEVASISTGTGNTYYADSVKGRFTISQDKSKNTLYLQMNSLKAEDTAVYYCAADVRPDGTTCHYNSRGQGTLVTVSS
notes: as for B1
B8: BI-HU9-VHH31 h5A1 Fc (Fc fusion)
chain: EVQLVESGGGLVQPGGSLRLSCAASGFTVRLKCMGWFRQAPGKGLEEVATISTGTGNTYYADSVKGRFTISRDNSKNTLYLQMNSLRAEDTAVYYCAADVRPDGTTCHYNSWGQGTTVTVSS
notes: as for B1
B9: BI-HU9-VH9-1 h5A1 Fc (Fc fusion)
chain: EVQLLESGGGLVPRGGSLRLSCTASGYTNRLKCMGWFRQAPGKEREEIATISTGTGNTYYADSVKGRFTISQDKSRNTLYLQMKTLRAEDTAVYYCAADVRPDGTTCHYNSWGQGTQVTVSS
notes: as for B1
B10: FUSE-655 - h5A1-FA9-HK6-N84S Fc (Fc fusion)
chain: EVQLLESGGGLVPRGGSLRLSCTASGYTNRLKCMGWFRQAPGKEREEIASISTGTGNTYYADSVKGRFTISQDKSRNTLYLQMSSLKAEDTAVYYCAADVRPRGTTCHYNSRGQGTQVTVSS
notes: as for B1
B11: FUSE-654 - h5A1-FA9-HK6-R19K Fc (Fc fusion)
chain: EVQLLESGGGLVPRGGSLKLSCTASGYTNRLKCMGWFRQAPGKEREEIASISTGTGNTYYADSVKGRFTISQDKSRNTLYLQMNSLKAEDTAVYYCAADVRPRGTTCHYNSRGQGTQVTVSS
notes: as for B1
B12: FUSE-489 (h5A1-Ac13) (bispecific antibody, human IgG1, lambda, L234A L235A)
heavy: EVQLVESGGGLVQPGGSLRLSCAASGFTFSTYAMNWVRQAPGKGLEWVARIRSKYNNYATYYADSVKDRFTISRDDSKNTLYLQMNSLRAEDTAVYYCARHGNFGNSYVSWFAYWGQGTMVTVSSASTKGPSVFPLAPSSKSTSGGTAALGCLVKDYFPEPVTVSWNSGALTSGVHTFPAVLQSSGLYSLSSVVTVPSSSLGTQTYICNVNHKPSNTKVDKKVEPKSCDKTHTCPPCPAPEAAGGPSVFLFPPKPKDTLMISRTPEVTCVVVDVSHEDPEVKFNWYVDGVEVHNAKTKPREEQYNSTYRVVSVLTVLHQDWLNGKEYKCKVSNKALPAPIEKTISKAKGQPREPQVYTLPPSREEMTKNQVSLSCAVKGFYPSDIAVEWESNGQPENNYKTTPPVLDSDGSFFLVSKLTVDKSRWQQGNVFSCSVMHEALHNRFTQKSLSLSPGK
chain: QVQLQESGGGLVQPGGSLRLSCTASGYTNRLKCMGWVRQAPGKEREEVATISTGTGNTYYADSVKGRFTISRDNSKNTLYLQMNSLRAEDTAMYYCAADVRPDGTTCHYNSGGQGTQVTVSSEPKSSDKTHTCPPCPAPEAAGGPSVFLFPPKPKDTLMISRTPEVTCVVVDVSHEDPEVKFNWYVDGVEVHNAKTKPREEQYNSTYRVVSVLTVLHQDWLNGKEYKCKVSNKALPAPIEKTISKAKGQPREPQVYTLPPSREEMTKNQVSLWCLVKGFYPSDIAVEWESNGQPENNYKTTPPVLDSDGSFFLYSKLTVDKSRWQQGNVFSCSVMHEALHNHYTQKSLSLSPGK
light: QAVVTQEPSLTVSPGGTVTLTCRSSTGAVTTSNYANWVQQKPGQAPRGLIGGTNKRAPGTPARFSGSLLGGKAALTLSGVQPEDEAEYYCALWYSNLWVFGGGTKLTVLGQPKAAPSVTLFPPSSEELQANKATLVCLISDFYPGAVTVAWKADSSPVKAGVETTTPSKQSNNKYAASSYLSLTPEQWKSHRSYSCQVTHEGSTVEKTVAPTECSGGGGSGGGGSGGGGSGGGGSQVQLQESGGGLVQPGGSLRLSCTASGYTNRLKCMGWVRQAPGKEREEVATISTGTGNTYYADSVKGRFTISRDNSKNTLYLQMNSLRAEDTAMYYCAADVRPDGTTCHYNSGGQGTQVTVSS
notes: Format Ac13
B13: FUSE-498 (h5A1-Ac13) (bispecific antibody, human IgG1, lambda, L234A L235A)
heavy: EVQLVESGGGLVQPGGSLRLSCAASGFTFSTYAMNWVRQAPGKGLEWVARIRSKYNNYATYYADSVKDRFTISRDDSKNTLYLQMNSLRAEDTAVYYCARHGNFGNSYVSWFAYWGQGTMVTVSSASTKGPSVFPLAPSSKSTSGGTAALGCLVKDYFPEPVTVSWNSGALTSGVHTFPAVLQSSGLYSLSSVVTVPSSSLGTQTYICNVNHKPSNTKVDKKVEPKSCDKTHTCPPCPAPEAAGGPSVFLFPPKPKDTLMISRTPEVTCVVVDVSHEDPEVKFNWYVDGVEVHNAKTKPREEQYNSTYRVVSVLTVLHQDWLNGKEYKCKVSNKALPAPIEKTISKAKGQPREPQVYTLPPSREEMTKNQVSLSCAVKGFYPSDIAVEWESNGQPENNYKTTPPVLDSDGSFFLVSKLTVDKSRWQQGNVFSCSVMHEALHNRFTQKSLSLSPGK
chain: EVQLVESGGGLVQPGGSLRLSCTASGYTNRLKCMGWFRQAPGKEREEIATISTGTGNTYYADSVKGRFTFSRDNSKNTLYLQMNSLRAEDTAVYYCAADVRPDGTTCHYNSGGQGTQVTVSSEPKSSDKTHTCPPCPAPEAAGGPSVFLFPPKPKDTLMISRTPEVTCVVVDVSHEDPEVKFNWYVDGVEVHNAKTKPREEQYNSTYRVVSVLTVLHQDWLNGKEYKCKVSNKALPAPIEKTISKAKGQPREPQVYTLPPSREEMTKNQVSLWCLVKGFYPSDIAVEWESNGQPENNYKTTPPVLDSDGSFFLYSKLTVDKSRWQQGNVFSCSVMHEALHNHYTQKSLSLSPGK
light: QAVVTQEPSLTVSPGGTVTLTCRSSTGAVTTSNYANWVQQKPGQAPRGLIGGTNKRAPGTPARFSGSLLGGKAALTLSGVQPEDEAEYYCALWYSNLWVFGGGTKLTVLGQPKAAPSVTLFPPSSEELQANKATLVCLISDFYPGAVTVAWKADSSPVKAGVETTTPSKQSNNKYAASSYLSLTPEQWKSHRSYSCQVTHEGSTVEKTVAPTECSGGGGSGGGGSGGGGSGGGGSEVQLVESGGGLVQPGGSLRLSCTASGYTNRLKCMGWFRQAPGKEREEIATISTGTGNTYYADSVKGRFTFSRDNSKNTLYLQMNSLRAEDTAVYYCAADVRPDGTTCHYNSGGQGTQVTVSS
notes: Format Ac13

Legend:
[1] = biological target: T1, human ROR1 (Receptor Tyrosine Kinase-Like Orphan Receptor 1) on the cell surface (human, UniProt Q01973 30-937); assay: flow cytometry, B16-F10 cells expressing human ROR1 (high density)
T1 construct: whole, on cells; engineered into B16-F10 (high density) and LS174T (low density) cells; also called B16-F10-ROR1-H; LS174T-ROR1-L
Protocol: (§1) As shown in the tables below, mouse B16-F10 melanoma (Tables 9A-9F) or LS174T human colorectal adenocarcinoma (Tables 9G-9H) cells genetically engineered to express human ROR1 at high and low densities, respectively, were stained for flow cytometric analysis with 100 nM of humanized variants of the ROR1 specific VHHs, 5A1 or 2A11 in either a VHH-Fc format or the Ac13 format shown in FIG. 1. Cells were analyzed on a flow cytometer after the primary test article was fluorescently tagged with a goat anti human IgG-Fc specific PE secondary antibody. The positive control used was PE conjugated anti-human ROR1 clone 2A2. Negative controls included a PE labeled mouse IgG Ab, the secondary antibody only, the combination of a Hen Egg Lysozyme (HEL) specific antibody plus goat anti human IgG-Fc specific PE and Fluorescence Minus One (FMO). Other controls included the non-humanized version of 5A1-Fc (FUSE179), 2A11-Fc (FUSE112) and 5A1-Ac13 (FUSE488). Humanized variants were generated using computational design (FUSE489, FUSE497-498, FUSE563, FUSE569-570, and BI-HU9-VHH11-33), a yeast display library in which mutations were inserted into the Vernier zone residues of human framework indicated in GenBank accession number M99660 (FUSE524-525, FUSE589, FUSE597-598, FUSE537, FUSE661-662, BI-HU9-HK and BI-HU9-HK-1), and a second yeast display library in which mutations were inserted into the Vernier zone residues of human framework indicated in GenBank accession number AWH66715 and amino acid position 103 within CDR3 (FUSE559, FUSE590-596, BI-HU9-VH9-1, FUSE654-655 and FUSE661-662. Affinity matured variants of FUSE559 were also generated using computational design (F22158101-21; Table 9H).

[2] = biological target: T1, human ROR1 (Receptor Tyrosine …); assay: flow cytometry, LS174T cells expressing human ROR1 (low density)
Protocol: as §1

[3] = biological target: T1, human ROR1 (Receptor Tyrosine …); assay: flow cytometry, B16-F10 cells expressing human ROR1 (high density); remark: listed apart in the source
Protocol: as §1

T1 sequence (Q01973 30-937): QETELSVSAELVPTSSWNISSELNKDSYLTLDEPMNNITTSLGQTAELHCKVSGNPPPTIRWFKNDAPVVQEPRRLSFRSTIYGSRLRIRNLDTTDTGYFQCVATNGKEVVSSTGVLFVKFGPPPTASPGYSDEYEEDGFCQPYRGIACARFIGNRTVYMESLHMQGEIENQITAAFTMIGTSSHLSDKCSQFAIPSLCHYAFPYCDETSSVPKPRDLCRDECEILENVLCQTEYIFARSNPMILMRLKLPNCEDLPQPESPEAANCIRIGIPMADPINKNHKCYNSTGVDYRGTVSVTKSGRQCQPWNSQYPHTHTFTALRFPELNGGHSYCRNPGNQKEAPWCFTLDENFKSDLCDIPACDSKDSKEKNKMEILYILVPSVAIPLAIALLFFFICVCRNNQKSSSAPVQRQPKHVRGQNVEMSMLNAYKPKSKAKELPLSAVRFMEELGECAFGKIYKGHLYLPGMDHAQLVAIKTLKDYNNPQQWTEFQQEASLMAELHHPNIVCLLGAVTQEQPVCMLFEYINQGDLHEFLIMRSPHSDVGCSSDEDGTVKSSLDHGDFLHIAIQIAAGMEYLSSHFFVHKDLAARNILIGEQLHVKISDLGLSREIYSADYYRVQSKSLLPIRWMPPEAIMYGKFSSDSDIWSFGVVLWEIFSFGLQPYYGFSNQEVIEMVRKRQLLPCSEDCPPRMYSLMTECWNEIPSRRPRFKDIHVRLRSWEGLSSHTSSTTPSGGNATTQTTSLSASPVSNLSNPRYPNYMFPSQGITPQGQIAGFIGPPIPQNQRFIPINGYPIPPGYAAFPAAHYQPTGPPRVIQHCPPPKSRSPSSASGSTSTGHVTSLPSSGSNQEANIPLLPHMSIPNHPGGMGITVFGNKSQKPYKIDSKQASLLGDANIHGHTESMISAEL

Binder | MFI [1] | MFI [2] | also measured
B1 | 159000 |  | 
B2 |  | 4880 | 
B3 | 157000 |  | 
B4 |  | 4350 | 
B5 | 155000 |  | 
B6 | 14400 |  | 
B7 | 136000 |  | 
B8 | 17900 |  | 
B9 | 16600 |  | 
B10 |  | 4010 | 
B11 |  | 4560 | 
B12 |  |  | MFI [3]: 1060
B13 |  |  | MFI [3]: 1360
